Assay results reported in patent publication US10533231B2, “Artificial bioluminescent enzyme” (NATIONAL INSTITUTE OF ADVANCED INDUSTRIAL SCIENCE AND …, priority 2012, dated 2020).

Columns and labels:
[1] = system: COS-7 cells; assay: Enzymatic activity confirmation of ALuc (section 3-1, 3-2); assay type: cell-based, African monkey; settings: vs conventional copepod luciferases
Procedure: First, using a known lipid reagent for gene introduction, an expression vector encoding ALuc is introduced into African monkey-derived COS-7 cells; as a control, an expression vector having a known GLuc without any mutation into the cells is also introduced in the same manner. At a predetermined time (from 10 to 20 hours, for example, 16 hours) after the introduction of the vector, a cell lysate is prepared using a known lysis reagent.
Thereafter, the cell lysate is mixed with a known substrate solution containing coelenterazine, and its color intensity, temporal stability in luminescence, etc., are measured.
The luminescence intensity may be found by measuring the intensity at a specific wavelength using a known luminescence spectrophotometer after addition of a known substrate. By performing the measurement every minute, the temporal stability in luminescence can be evaluated. To measure a shift to a longer wavelength, scanning of the entire wavelength is necessary.

[2] = Temporal change in luminescence after substrate injection, medium 25 days after expression (Example 1-19); assay type: biochemical
Procedure: 50 μL of an assay solution (containing native coelenterazine, produced by Promega) was added to 5 μL of each medium 25 days after the expression, and the luminescence value (enzymatic activity) was measured using an LAS-4000 (produced by FujiFilm).

[3] = system: COS-7 cells; assay: Luminescence of ALuc25 to ALuc32 in lysate and medium (Example 1-18); assay type: cell-based; settings: 20 hours after plasmid introduction
Procedure: After the insertion of a gene encoding an enzyme sequence as mentioned above into a mammalian expression vector (pcDNA3.1 (+)), each plasmid was introduced into COS-7 cells. By the transformation of these cells, each luciferase was expressed, and some of the luciferase was secreted out of the cells and some of the luciferase retained in the cells. 20 hours after the plasmid introduction, media of the cells were sampled, and the remaining cells were lysed with a lysis buffer (lysate preparation). Immediately after 50 μL of assay solution (containing a substrate) was simultaneously added to each prepared medium (5 μL) or lysate (5 μL), the luminescence value was measured using a luminescence analyzer (LAS-4000; FujiFilm) (n=3) (FIG. 18).

[4] = system: COS-7 cells; assay: Luminescence intensity of tag-containing ALucs secreted into medium (Example 1-21); assay type: cell-based; settings: culturing one day, Promega kit with nCTZ
Procedure: To compare the luminescence intensity of novel luciferases, a comparison experiment was performed under the same conditions as Example 1-2 (COS-7 cells, culturing for one day, using an assay kit produced by Promega) (FIG. 21 (B)). Finally, the luminescence intensity of each luciferase secreted into the medium was compared using an assay kit (containing native coelenterazine (nCTZ)) produced by Promega.

[5] = Prolonged activity stability of ALucs secreted in medium (Example 1-19); assay type: physicochemical; settings: Day 0 to Day 25
Procedure: The prolonged activity stability of the artificial luciferases (ALucs) developed in the present invention was examined. First, a plasmid expressing each artificial luciferase (ALuc16, ALuc22, ALuc23, ALuc24, ALuc25, and ALuc30) (in the figure, each is referred to as A16, A22, A23, A24, A25, and A30) was introduced into COS-7 cells, and then culturing was continued for 24 hours. By the culturing, each artificial luciferase was secreted into the medium. The artificial luciferase secreted in the medium was collected, and a difference in enzymatic activity was measured under the same conditions in the following manner. On the first day (Day 0), 50 μL of assay solution (containing native coelenterazine, produced by Promega) was added to 5 μL of each medium, and the luminescence value (enzymatic activity) was measured using an LAS-4000 (produced by FujiFilm). In the same manner, the luminescence value on Day 8, Day 16, and Day 25 was compared with the luminescence value on Day 0 (FIG. 19 (A)).

[6] = system: COS-7 cells; assay: Luminescence characteristics of tag-containing ALucs (Example 1-22); assay type: cell-based; settings: medium two days after gene transfer
Procedure: To compare the relative luminescence intensity of these luciferases, the following experiment was conducted. First, a gene encoding each luciferase was subcloned into pcDNA3.1 (+), which is a eukaryotic expression vector, and each vector was introduced into COS-7 cells. Two days after gene transfer, the relative luminescence intensity of luciferase secreted into each medium was compared using a luminescence reagent produced by Promega.

[7] = Heat resistance of ALucs in lysate (Example 1-4); assay type: physicochemical; settings: 80° C. for 10 minutes
Procedure: The heat resistance and degree of extracellular secretion of artificial luciferases of the present invention were measured (FIG. 4). First, to measure heat resistance, COS-7 cells containing each luciferase were lysed in cell lysis solutions produced by Promega to prepare lysates. Subsequently, same samples were allowed to stand at room temperature or heated at 80° C. for 10 minutes, and changes in luminescence intensity were compared by using a (substrate-containing) reaction solution produced by Promega.

[8] = system: COS-7 cells; assay: Degree of extracellular secretion of ALucs (Example 1-4); assay type: cell-based, African green monkey; settings: luminescence intensity of the medium, overnight culture
Procedure: Further, each luciferase (ALuc) was introduced into COS-7 cells, culturing was performed overnight, and then the amount of each luciferase (ALuc) secreted from the cells was measured based on the luminescence intensity of the medium (FIG. 4B).

[9] = system: COS-7 cells; assay: Comparison of luminescence intensity of ALucs (Example 1-2); assay type: cell-based, African green monkey; settings: COS-7 cultured overnight, Promega assay solution, LAS-4000
Source text: The artificial luciferase (ALuc) genes synthesized by the above process were subcloned into mammalian cell expression vectors (pcDNA3.1 (+)). Each expression vector was transfected with African green monkey kidney-derived COS-7 cells, and the luminescence intensity, luminescence stability, and red-shifted degree of artificial luciferases (ALucs) were compared (FIGS. 2 to 5).
First, the luminescence intensity of artificial luciferases (ALucs) was compared (FIG. 2). For the comparison, COS-7 cells containing a vector encoding each luciferase were cultured overnight, and then the relative luminescence intensity was measured by using an assay solution, which is a mixture of a cell lysis solution and a substrate, produced by Promega, and a luminescence image analyzer (LAS-4000).

[10] = system: COS-7 cells; assay: Luminescence stability of ALucs after substrate injection (Example 1-3); assay type: cell-based, African green monkey; settings: Promega lysis and reaction solution
Procedure: The luminescence stability of the artificial luciferases (ALucs) of the present invention was examined in various respects (FIG. 3). COS-7 cells containing each luciferase gene were cultured for 9 hours, and treated with a cell lysis solution produced by Promega for 20 minutes. Temporal changes in luciferase luminescence intensity after the introduction of a substrate-containing reaction solution produced by Promega were observed every five minutes (FIG. 3A).
This experiment was expanded to artificial luciferases ALuc16 to ALuc25 (FIG. 3BC).

| Molecule | luminescence stability (general statement) [1] | time of maximum luminescence value after infusion of coelenterazine ([2]; after long-term conservation (25 days)) [min] | temporal change of luminescence after substrate injection ([2]; medium 25 days after expression) | luminescence from cell medium [3] | luminescence value from lysate [3] | luminescence intensity of luciferase secreted into the medium [4] | prolonged enzymatic activity stability [5] | relative luminescence intensity [6] | change of luminescence intensity by heating [7] | extracellular secretion [8] | luminescence intensity higher than that of conventional GLuc, Renilla luciferase and MpLuc4 [9] | luminescence intensity (initial) [10] |
| --- | --- | --- | --- | --- | --- | --- | --- | --- | --- | --- | --- | --- |
| ALuc30: artificial luciferase containing a His tag, SEQ ID NO: 32 (protein, His tag; Synthetic Aluc30) MMGIKVLFALICFALVQANHHHHHHHHDIVGVEGKFGTTDLETDLFTIVEDMNVISRDTDVDANRADRGRRGKLPGKKLPLEVLKELEANAQKAGCTRGCLICLSHIKCTAKMKKWLPGRCESWEGDKETGQGGIGEAIVDIPEIPGFKELAPMEQFIAQVDLCADCTTGCLKGLANVKCSALLKKWLPSRCAGFADKIQAQVDTIKGAGGS | remarkably stable luminescence signals | 12 | several times higher | strong bioluminescence | extremely higher than those of conventional GLuc and MpLuc4 | relatively high luminescence intensity | maintained stable enzymatic activity until Day 25 | – | – | – | – | – |
| ALuc33: artificial luciferase containing an HA-tag, SEQ ID NO: 35 (protein, HA tag; Synthetic ALuc33) MMGIKVLFALICFALVQANMMYPYDVPDYAGVEGKFGTTDLETDLFTIVEDMNVISRDTDVDANRADRGRRGKLPGKKLPLEVLKELEANAQKAGCTRGCLICLSHIKCTAKMKKWLPGRCESWEGDKETGQGGIGEAIVDIPEIPGFKELAPMEQFIAQVDLCADCTTGCLKGLANVKCSALLKKWLPSRCAGFADKIQAQVDTIKGAGGS | remarkably stable luminescence signals | – | – | – | – | relatively high luminescence intensity | – | relatively high luminescence intensity | – | – | – | – |
| ALuc25: artificial luciferase, SEQ ID NO: 17 (protein, Synthetic ALuc25) MMGVKLIFAVLCVAVAQANATINENFEDIDLVAIGGSFADLETDLFTIVEDMNVISRDTDVDANRGGRGRRGKLPGKKLPLEVLKELEANAQKAGCTRGCLICLSHIKCTAKMKKWLPGRCESWEGDKETGQGGIGEAIVDIPEIPGFKELAPMEQFIAQVDLCADCTTGCLKGLANVKCSALLKKWLPSRCAGFADKIQAQVDTIKGAGGS | remarkably stable luminescence signals | – | – | – | extremely higher than those of conventional GLuc and MpLuc4 | – | maintained stable enzymatic activity until Day 25 | – | a remarkable reduction in luminescence intensity that may be due to heating was not observed | low extracellular secretion | about 50 folds | advantageous initial luminescence intensity |
| ALuc32: artificial luciferase containing a c-Myc-tag, SEQ ID NO: 34 (protein, c-Myc tag; Synthetic ALuc32) MMGIKVLFALICFALVQANEQKLISEEDLVGVEGKFGTTDLETDLFTIVEDMNVISRDTDVDANRADRGRRGKLPGKKLPLEVLKELEANAQKAGCTRGCLICLSHIKCTAKMKKWLPGRCESWEGDKETGQGGIGEAIVDIPEIPGFKELAPMEQFIAQVDLCADCTTGCLKGLANVKCSALLKKWLPSRCAGFADKIQAQVDTIKGAGGS | remarkably stable luminescence signals | – | – | – | – | – | – | relatively poor luminescence intensity | – | – | – | – |
